Km, kcat and kcat/Km data for one protein are collected here from PMC9843451.

Common to all, as to assay: purified protein
Holding throughout (type): biochemical, Rhodopseudomonas palustris

Substrate in series [1]: O=C1CCc2ccccc2O1
The conditions noted are these: 50 mM Tris pH 8, 150 mM NaCl, 1 mM CaCl2, DMSO, error is 95% CI.

Substrate in series [2]: CCCCCCC1CCC(=O)O1
The conditions noted are these: 2.5 mM bicine pH 8.3, 150 mM NaCl, 1 mM CaCl2, DMSO, error is 95% CI.

Substrate in series [3]: O=C1CCCCO1
As to conditions: 2.5 mM bicine pH 8.3, 150 mM NaCl, 1 mM CaCl2, DMSO, error is 95% CI.

B1: Rpa3624 (Rhodopseudomonas palustris CGA009) (protein)
chain: MSNVRVLATDLAFPEGPVVMPDGSVVLVEIRAQQLTRVWPDGRKEVVAKVPGGPNGAALGPDGKMYICNNGGFGWFPSRGTMMPGAPAPHEYIGGSIQRVDLQSGEVETLFDKCGEHPLKGPNDLVFDKHGGLWFTDLGKRRARDMDVGAAYYIKPGMTEITEQVFGTLPLNGIGLSPDEATMYAAETPTGRLWAFDLSGPGEVKPRDVIYRGEKGKPICGLGGYQMFDSLAVEASGNVCVATLVSGCISVIAPDGTLVEQVPTGDRVTTNIAFGGPDLKTAYITLSGKGELIAMDWSRPGLPLNFLNK
For orientation: kcat means the number of substrate molecules converted per active site and unit of time at saturation. One may read the kcat/Km as the second-order rate constant that governs catalysis at low substrate concentration. As for B1, in series [1], the Km is 1.85 (0.976–3.77) mM, the kcat came out at 308 s⁻¹ and the specificity constant (kcat/Km) stood at 166000 M⁻¹ s⁻¹. In series [2], the Km was 2.36 (1.15–4.82) mM, the catalytic constant (kcat) is 135 s⁻¹ and the kcat/Km was found to be 57200 M⁻¹ s⁻¹. In addition, in series [3], the Km is on record as 74.0 (40.7–133) mM, the turnover number (kcat) came out at 754 s⁻¹ and the specificity constant (kcat/Km) stood at 10200 M⁻¹ s⁻¹.
